Each block holds one substance with its values, some of them ahead of it.
Target: activin-like kinase receptor 3 (ALK3) (human) (UniProt P36894)
Experiment: cell-based or functional assay

Sequence of activin-like kinase receptor 3 (ALK3) (human) (P36894 24-532): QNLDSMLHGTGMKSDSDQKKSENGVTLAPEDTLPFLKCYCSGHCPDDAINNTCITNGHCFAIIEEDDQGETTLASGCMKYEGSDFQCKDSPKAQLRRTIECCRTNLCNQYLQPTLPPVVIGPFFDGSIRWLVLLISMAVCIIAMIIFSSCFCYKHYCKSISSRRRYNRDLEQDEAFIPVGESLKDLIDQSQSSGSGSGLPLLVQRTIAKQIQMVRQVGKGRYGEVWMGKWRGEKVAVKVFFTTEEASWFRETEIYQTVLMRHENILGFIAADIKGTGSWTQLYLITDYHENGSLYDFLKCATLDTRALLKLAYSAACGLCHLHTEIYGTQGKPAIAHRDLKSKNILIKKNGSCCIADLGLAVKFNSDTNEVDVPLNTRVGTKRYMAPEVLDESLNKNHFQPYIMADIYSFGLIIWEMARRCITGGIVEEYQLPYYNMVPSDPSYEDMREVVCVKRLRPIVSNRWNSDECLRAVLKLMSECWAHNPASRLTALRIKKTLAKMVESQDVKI
Sequence of Bone morphogenetic protein 7 (BMP-7) (P18075 293-431 limits assumed): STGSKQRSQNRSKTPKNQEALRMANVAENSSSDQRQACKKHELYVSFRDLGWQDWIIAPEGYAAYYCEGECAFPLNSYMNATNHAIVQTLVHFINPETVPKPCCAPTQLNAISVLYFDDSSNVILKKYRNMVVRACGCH

C-peptide production on hNEPT, fold vs. t=0 (n=6): 198 fold
Substance: Bone morphogenetic protein 4 (BMP-4) (from UniProt P12644 293-408) (ligand)

BMP-7-mediated induction of C-peptide compared to t=0 (n=4), BMP-7 alone: 314 fold | BMP-7-mediated induction of C-peptide compared to t=0 (n=4), in the presence of dorsomorphin (inhibitor of SMAD1/5/8 phosphorylation): 108 fold | C-peptide induction on hNEPT, fold vs. t=0 (n=4, comparison with THR-123): 261 fold | C-peptide production on hNEPT, fold vs. t=0 (n=6, comparison with BMP-4): 156 fold | insulin expression by qRT-PCR in ALK3+-sorted cells vs. non-BMP-7 treated controls: 1000 fold
Substance: Bone morphogenetic protein 7 (BMP-7) (from UniProt P18075 293-431) (ligand)

C-peptide induction on hNEPT, fold vs. t=0 (n=4): 318 fold
Substance: THR-123 (peptide)

From patent US20180155692A1
